The target in data set [1] is T1, Rad50-K173A K174A (Saccharomyces cerevisiae, UniProt P12753 1-1312, K173A;K174A).
T1 sequence: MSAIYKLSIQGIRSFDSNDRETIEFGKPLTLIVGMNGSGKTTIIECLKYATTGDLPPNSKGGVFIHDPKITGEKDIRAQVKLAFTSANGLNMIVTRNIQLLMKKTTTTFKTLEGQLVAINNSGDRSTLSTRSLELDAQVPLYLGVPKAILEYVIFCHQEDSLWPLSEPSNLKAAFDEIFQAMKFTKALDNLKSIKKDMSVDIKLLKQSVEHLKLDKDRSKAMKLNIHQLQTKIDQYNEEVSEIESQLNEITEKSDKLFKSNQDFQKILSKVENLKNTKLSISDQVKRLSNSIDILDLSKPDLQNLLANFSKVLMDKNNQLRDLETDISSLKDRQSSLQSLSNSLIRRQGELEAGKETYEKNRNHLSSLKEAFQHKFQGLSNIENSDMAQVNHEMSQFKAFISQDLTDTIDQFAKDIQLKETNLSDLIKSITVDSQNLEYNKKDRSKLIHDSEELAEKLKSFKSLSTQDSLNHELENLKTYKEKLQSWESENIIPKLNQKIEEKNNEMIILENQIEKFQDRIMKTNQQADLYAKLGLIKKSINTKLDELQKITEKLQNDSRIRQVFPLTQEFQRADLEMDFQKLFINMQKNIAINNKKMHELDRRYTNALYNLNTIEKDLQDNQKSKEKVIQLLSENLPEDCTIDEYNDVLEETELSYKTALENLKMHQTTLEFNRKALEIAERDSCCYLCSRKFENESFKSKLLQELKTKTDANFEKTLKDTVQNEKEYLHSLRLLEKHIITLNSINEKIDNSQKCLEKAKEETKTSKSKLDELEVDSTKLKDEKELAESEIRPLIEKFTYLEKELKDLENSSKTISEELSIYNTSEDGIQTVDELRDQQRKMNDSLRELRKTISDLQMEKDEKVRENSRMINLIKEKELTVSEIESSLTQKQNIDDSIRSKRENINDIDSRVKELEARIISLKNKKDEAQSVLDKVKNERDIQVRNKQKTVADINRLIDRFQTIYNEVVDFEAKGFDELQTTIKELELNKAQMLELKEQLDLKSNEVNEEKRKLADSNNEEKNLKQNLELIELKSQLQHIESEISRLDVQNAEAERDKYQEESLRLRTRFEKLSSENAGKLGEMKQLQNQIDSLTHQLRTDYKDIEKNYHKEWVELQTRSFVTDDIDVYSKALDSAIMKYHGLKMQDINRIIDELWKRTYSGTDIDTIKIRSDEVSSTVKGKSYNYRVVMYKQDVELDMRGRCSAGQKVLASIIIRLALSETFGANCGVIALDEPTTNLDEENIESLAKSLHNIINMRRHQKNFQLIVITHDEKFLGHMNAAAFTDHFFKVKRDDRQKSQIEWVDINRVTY
The experiment in a line: EMSA. A general note: Mobility shift assays separate free from complexed probe on a gel.

Data set [2] addresses T2, Rad50-3KA (Saccharomyces cerevisiae, UniProt P12753 1-1312, K192A;K195A;K196A).
T2 sequence: T1 sequence with A173K, A174K, K192A, K195A, K196A
The experiment in a line: EMSA.

Positions count from the first letter of the chain named.

Consider one molecule from article PMC12343972 (Nature Communications, 2025).

B1: 83-mer dsDNA (EMSA) (dsDNA)
DNA 1: TTGATAAGAGGTCATTTTTGCGGATGGCTTAGAGCTTAATTGCTGAATCTGGTGCTGTAGCTCAACATGTTTTAAATATGCAA
DNA 2: TTGCATATTTAAAACATGTTGAGCTACAGCACCAGATTCAGCAATTAAGCTCTAAGCCATCCGCAAAAATGACCTCTTATCAA
For the molecule B1, the binding result in data set [1] and in data set [2] was “binds” in each case.
